Source: patent US20240083948

Columns and labels:
[1] = biological target: AKT1 (PKB alpha), active (UniProt P31749)
[2] = biological target: AKT1 mutant with a deletion in the PH domain, active (UniProt P31749)
[3] = biological target: AKT1 Ser473Asp mutant, active (UniProt P31749)
[4] = system: T1, adjacent peptide Gly-Phe-Ala-Lys-Arg-Val-Lys-Gly-Arg-Thr-Trp-Thr-Leu
T1 sequence: GFAKRVKGRTWTL

[5] = system: T2, ZaTa peptide (Ala-Lys-Arg-Val-Lys-Gly-Arg-Thr-Trp-Thr-Leu-Cys-Gly-Thr-Pro-Glu-Tyr)
T2 sequence: AKRVKGRTWTLCGTPEY

[6] = system: PKAc, full-length, active (catalytic subunit of Protein Kinase A)

Chain of AKT1 (PKB alpha), active (P31749 whole entry, looked up, the tested form may be a part): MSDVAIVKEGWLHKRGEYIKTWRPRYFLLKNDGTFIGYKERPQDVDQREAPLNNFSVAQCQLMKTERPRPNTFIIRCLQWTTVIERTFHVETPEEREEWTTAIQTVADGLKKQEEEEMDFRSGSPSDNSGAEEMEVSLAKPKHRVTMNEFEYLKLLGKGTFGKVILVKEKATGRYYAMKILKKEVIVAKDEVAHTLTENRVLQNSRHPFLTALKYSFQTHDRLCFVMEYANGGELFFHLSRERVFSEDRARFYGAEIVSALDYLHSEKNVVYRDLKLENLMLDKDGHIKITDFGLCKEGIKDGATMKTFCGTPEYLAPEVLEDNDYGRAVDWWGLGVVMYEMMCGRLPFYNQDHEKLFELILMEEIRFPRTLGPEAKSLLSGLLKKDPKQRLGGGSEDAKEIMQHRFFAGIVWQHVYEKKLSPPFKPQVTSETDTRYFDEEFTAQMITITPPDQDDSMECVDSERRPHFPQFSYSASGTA
Chain of AKT1 Ser473Asp mutant, active (P31749 whole entry S473D): as the sequence (P31749 whole entry, looked up, the tested form may be a part) above, with S473D counted along it
Chain of AKT1 mutant with a deletion in the PH domain, active (P31749 whole entry, looked up, stated change not applied, the tested form may be a part): as the sequence (P31749 whole entry, looked up, the tested form may be a part) above

human PKAc expressed in Sf9 cells
AKT kinase assay, catalytic activity of AKT [1]: the same inhibitory effect was observed ... with human PKAc expressed in Sf9 cells

PKAc, full-length, active (catalytic subunit of Protein Kinase A)
AKT kinase assay, catalytic activity of the AKT1 mutant [2]: The decrease in the catalytic activity of AKT by PKAc was also observed with two mutants and active forms of AKT1, one with a deletion in the PH domain
AKT kinase assay, catalytic activity of the AKT1 mutant [3]: The decrease in the catalytic activity of AKT by PKAc was also observed with two mutants and active forms of AKT1 ... the other one with a Ser473Asp mutation
AKT kinase assay, Ser-9 GSK-3 GST fusion protein as substrate [1]: the kinetic activity of AKT was dramatically reduced

active PKAc purified from bovine tissue
AKT kinase assay, catalytic activity of AKT [1]: the same inhibitory effect was observed with active PKAc purified from bovine tissue

AKT1 (PKB alpha), active
AKT1 in vitro catalytic activity (incorporation of γ-32P into Ser-21 GSK-3β substrate peptide) [4]: the adjacent overlapping peptide was not able to inhibit AKT1
AKT1 kinase assay, phosphorylation level of Ser-9 GSK-3 GST substrate (western blot) [5]: The phosphorylation level of Ser-9 GSK-3 GST substrate was significantly reduced after adding the ZaTa peptide to the AKT1 kinase assay
control kinase reactions that contained the peptide and AKT only [5]: ZaTa peptide itself was not a substrate for AKT
PKA kinase assay, phosphorylation level of DARPP-32 at Thr-34 [6]: addition of the active AKT to the PKA kinase assay increased the catalytic activity of PKAc
phosphorylation level of PKAc at Thr-197 [6]: the increase in the PKAc catalytic activity was accompanied by an increase in the phosphorylation level of PKAc at Thr-197
